Test results: PMC6941969

Target: VemH (Streptomyces venezuelae ATCC 10712)

apparent Kd from enzyme activity: initial velocities of venemycin production (HPLC) at constant 0.2 µM VemH and 0.1–8.0 µM VemG, fit with a quadratic binding equation: 5.1 µM
Substance: VemG (enzyme)
